Source: US20140017242A1, “ANTI-BRADYKININ B2 RECEPTOR (BKB2R) MONOCLONAL ANTIBODY” (Diamedica, Inc., priority 2010, published 2014)

How the values were obtained:
[1] = tested on: NUGC-4; experiment: MTT Cell Proliferation Assay, NUGC-4; type: cell-based, human; conditions: 120 hours of exposure
Text: (§1) This Example describes characterization of the cytotoxic activity of herein described anti-BKB2R monoclonal antibodies against a panel of cancer cell lines. BxPC-3 is a human adenocarcinoma cell line originally isolated from the pancreas (pancreatic cancer) (ATCC # CRL-1687; Tan et al., Cancer Invest. 4: 15-23, 1986. PubMed: 3754176). MV-4-11 is a human biphenotypic B myelomonocytic leukemia (mixed-lineage leukemia, MLL-AF4) cell line originally isolated from the peripheral blood (ATCC # CRL-959; Lange et al., Blood 70: 192-199, 1987. PubMed: 3496132). Hep G2 is a human hepatocellular carcinoma cell line isolated from the liver (liver cancer) (ATCC # HB-8065; Aden et al., Nature 282: 615-616, 1979. PubMed: 233137). RS4;11 is a human acute lymphoblastic leukemia (mixed-lineage leukemia, MLL-AF4) cell line isolated from the bone marrow (ATTC # CRL-1873) Stong et al., Blood 65: 21-31, 1985. PubMed: 3917311). HT-29 is a human colorectal adenocarcinoma (ATTC # HTB-38) cell line isolated from the colon (colon cancer). Fogh et al., J. Natl. Cancer Inst. 58: 209-214, 1977. PubMed: 833871). NUGC-4 is a human stomach carcinoma isolated from the stomach paragastiric lymph node (JCRB # JCRB0834; Akiyama et al., Jpn. J. Surg., 18: 438-446, 1988). […]
(§2) The anti-proliferative activity of test compounds against the indicated cell lines was evaluated in vitro using the ATCC's MTT Cell Proliferation Assay (Catalog No. 30-1010K). After the 120 hour incubation with drug (e.g., anti-BKB2R mAb or cisplatin), cell proliferation was measured by addition of MTT reagent to each well and incubation for an additional 4 hrs. […] Optical absorbance (570 nm) of the test wells was measured and then quantitated relative to control wells that received no drug. Results were expressed as percent inhibition versus compound concentration and graphed, as shown in FIGS. 19-25, for cell lines BxPC-3, MV-4;11, HepG2, RS-4;11, HT-29, NUGC-4, and PC-3, respectively.

[2] = tested on: MV-4-11; experiment: MTT Cell Proliferation Assay, MV-4-11; type: cell-based, human; conditions: 120 hours of exposure
Text: as §1, §2

[3] = tested on: ZDF fa/fa rats; experiment: 21-day ZDF fa/fa study: tail cuff blood pressure and heart rate; type: in vivo, rat
Procedure: Animals. Male ZDF fa/fa rats were obtained from CRL (Kingston, N.Y.). Upon arrival, rats were seven weeks of age. The rats were housed individually per cage in a room with a photo cycle of 12 hours of light and 12 hours of dark and an ambient temperature of 70-72° F. and fed on regular rodent diet and water ad libitum. At the age of eleven weeks, rats were divided into six groups (Table 5) of eight rats per group based on fasting blood glucose levels. A sub-group of four rats per group was maintained in parallel to the main groups and was dosed similarly for twenty-one days for a hyperinsulinemic-euglycemic clamp study. […]
An oral glucose tolerance test (OGTT) was performed on Day 0, 7, 14 and 21 for each group of the study. […] Body weight, food and water intake were measured twice a week. Blood pressure and heart rates were monitored on Day 0, 7, 14 and 21 using a non-invasive tail cuff method (with five readings per rat taken and then averaged). […] Glycated (Glycosylated) hemoglobin (HbA1c) was measured at the end of the study. […]
Blood pressure measurements were performed using a blood pressure monitor and data acquisition software. […] The VPR sensor utilized a differential pressure transducer to non-invasively measure the blood volume in the tail, and determined systolic blood pressure, diastolic blood pressure, and heart rate. […]

[4] = tested on: ZDF fa/fa rats; experiment: 21-day ZDF fa/fa study: tolerability; type: in vivo, rat; conditions: different doses (0.2, 0.04, 0.008 mg/kg s.c. every 3 days), 21 days
Procedure: Animals. Male ZDF fa/fa rats were obtained from CRL (Kingston, N.Y.). Upon arrival, rats were seven weeks of age. The rats were housed individually per cage in a room with a photo cycle of 12 hours of light and 12 hours of dark and an ambient temperature of 70-72° F. and fed on regular rodent diet and water ad libitum. At the age of eleven weeks, rats were divided into six groups (Table 5) of eight rats per group based on fasting blood glucose levels. A sub-group of four rats per group was maintained in parallel to the main groups and was dosed similarly for twenty-one days for a hyperinsulinemic-euglycemic clamp study.
The test compounds 5F12G1 and MG2b-57 were administered subcutaneously once every three days. Exenatide was administrated intraperitoneally twice every day and sitagliptin was administrated orally once every day for a period of twenty-one days.

B1: 5F12G1: murine monoclonal anti-BKB2R antibody (IgG2b,κ), VH comprising SEQ ID NO:1, VL comprising SEQ ID NO:2 (antibody, listed as Mus musculus, V domains shown)
VH: EVKLEESGGGLVQPGGSMKLSCVVSGFTFSDYWMSWVRHSPEMGLEWVAEIRLKSDNYATHYAESVKGRFTISRDDSKSRLYLQINSLRGEDTGIYYCTRDYYAMEYWGQGTSVTVSS
VL: DVVMTQTPLSLPVSLGDQASISCRSSQTIVHSNGKTYLEWYLQKPGQSPKLLIYKVSNRFSGVPDRFSGSGSGTEFTLKISRVETEDLGVYYCFQASHVPYTFGGGTKLEIK
[1]
  EC 50 Values (ng/ml) NUGC-4: 47000 ng/mL
[2]
  EC 50 Values (ng/ml) MV-4-11: 35000 ng/mL
[3]; 0.2 mg/kg s.c. every 3 days (highest dose), Day 0 to Day 21
  increase in systolic blood pressure from baseline: 0.12+/−4.4 mm Hg
[3]; all 5F12G1 doses, day 21
  systolic, diastolic blood pressure and heart rate measurements relative to the control group MG2b-57: below the control group
[4]
  tolerability / toxic effects: well tolerated and no toxic effects were noted
